From patent US20170165365A1 (SYMPHOGEN A S, published 2017)
Substitutions are numbered along the chain they refer to.

T1: murine HER4 antigen (mouse, UniProt Q61527 26-652, limits assumed)
T1 construct: In-house antigen coated for ELISA; also called mouse HER4
T1 sequence (looked up): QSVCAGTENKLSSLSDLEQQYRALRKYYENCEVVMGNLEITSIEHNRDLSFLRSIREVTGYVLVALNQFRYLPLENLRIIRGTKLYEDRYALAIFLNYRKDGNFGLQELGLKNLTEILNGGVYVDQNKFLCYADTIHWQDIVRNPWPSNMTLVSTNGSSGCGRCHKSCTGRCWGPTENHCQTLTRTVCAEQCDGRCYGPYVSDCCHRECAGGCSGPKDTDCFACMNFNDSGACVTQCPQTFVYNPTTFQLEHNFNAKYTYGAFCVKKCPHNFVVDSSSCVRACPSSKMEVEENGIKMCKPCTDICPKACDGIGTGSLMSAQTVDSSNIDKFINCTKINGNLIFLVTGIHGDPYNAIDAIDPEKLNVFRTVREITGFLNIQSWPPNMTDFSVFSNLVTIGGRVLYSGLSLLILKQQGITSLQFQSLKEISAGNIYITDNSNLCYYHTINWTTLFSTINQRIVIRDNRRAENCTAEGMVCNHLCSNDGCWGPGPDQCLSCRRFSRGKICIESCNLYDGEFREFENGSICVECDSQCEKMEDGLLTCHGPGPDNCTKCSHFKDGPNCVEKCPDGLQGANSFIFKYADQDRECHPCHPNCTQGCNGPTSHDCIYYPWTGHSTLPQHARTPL

T2: human HER4 antigen (human, UniProt Q15303 26-649, limits assumed)
T2 construct: Antigen coated for ELISA
T2 sequence (looked up): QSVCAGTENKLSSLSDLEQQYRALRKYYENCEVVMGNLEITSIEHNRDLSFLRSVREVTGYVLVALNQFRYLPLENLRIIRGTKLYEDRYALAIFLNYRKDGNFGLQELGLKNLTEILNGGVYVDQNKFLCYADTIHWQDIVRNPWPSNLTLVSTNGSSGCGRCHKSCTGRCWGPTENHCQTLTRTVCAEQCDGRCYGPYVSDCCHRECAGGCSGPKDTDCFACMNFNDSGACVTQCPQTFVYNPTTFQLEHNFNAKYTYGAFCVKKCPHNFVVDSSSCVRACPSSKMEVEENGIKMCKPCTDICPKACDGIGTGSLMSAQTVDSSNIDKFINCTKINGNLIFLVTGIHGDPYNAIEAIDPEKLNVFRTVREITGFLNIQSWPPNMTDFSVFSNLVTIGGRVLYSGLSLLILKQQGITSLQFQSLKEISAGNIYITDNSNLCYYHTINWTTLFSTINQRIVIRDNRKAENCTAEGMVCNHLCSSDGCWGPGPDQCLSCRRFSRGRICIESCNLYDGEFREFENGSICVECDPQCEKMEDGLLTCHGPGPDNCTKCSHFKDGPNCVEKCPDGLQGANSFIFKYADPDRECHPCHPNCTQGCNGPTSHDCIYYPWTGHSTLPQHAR

B1: chimeric anti-HER2 antibody 4517 (antibody, V domains shown)
VH: EVQLVESGGDLVKPGGSLKLSCAASGFTFSSYGMSWVRLTPDKRLEWVATISGGGSYTYYPDSVKGRFTISRDIAKSTLYLQMSSLKSEDTAVYYCARKGNYGNYGKLAYWGQGTSVTVS
VL: DIQMTQSPASLSVSVGETVTITCRASENIYSNLAWYQQEQGKSPQLLVYAATNLADGVPSRFSGSGSGTQYSLKINSLQSEDFGSYYCQHFWGTPWTFGGGTKLEIKR
notes: light chain entry is full length
B2: humanized anti-EGFR antibody 10292 (antibody, V domains shown)
VH: EVQLVESGGGLVQPGGSLRLSCAASGFAFSYSDMSWVRQAPGKRLEWVSYMSSAGDVTFYSDTVKGRFTISRDNAKNSLYLQVNSLRAEDTAVYYCVRHRDVAMDYWGQGTTVTVSS
VL: DIQMTQSPSSLSASVGDRATITCRSSQSLVHSNGNTYLHWYQQKPGKAPKLLIYKVSNRFSGVPSRFSGSGSGTDFTLTISSLQPEDFATYFCSQSTHVPTFGGGTKVEIK
B3: humanized anti-EGFR antibody 11294 (antibody, V domains shown)
VH: B2 VH with M104I
VL: DVVMTQSPLSLPVTLGQPASISCRSSQSLVHSNLNTYLHWYQQRPGQSPRLLIYKVSNRFSGVPDRFSGSGSGTDFTLKISRVEAEDVGVYFCSQSTHVPTFGGGTKVEIK
B4: chimeric anti-EGFR antibody 1565 (antibody, V domains shown)
VH: EVQLQQSGTELVKPGASVILSCKASGYTFTSYWMQWVKQRPGQGLEWIGNINPSNGGTSFNEEFKSRATLTVDKSSSTAYMQLSSLTSEDSAVYYCARDGGLYDGYYFDFWGQGTTLTVS
VL: NIVMTQSHKFMSTLIGARVSITCKASQDVDTAVAWYQQKPGQSPKLLIYWASTRHTGVPDRFTGSGSGTDFSLTVSNVQSEDLTDYFCQQYSSYPLTFGAGTKLELKR
notes: as for B1
B5: humanized anti-EGFR antibody 10560 (antibody, V domains shown)
VH: QVQLVQSGAEVKKPGASVKLSCKASGYTFTSYWMQWVRQAPGQGLEWIGNINPSNGGTSFNEEFKSRATMTRDTSTSTVYMELSSLRSEDTAVYYCARDGGLYDGYYFDFWGQGTLVTVSS
VL: AIQLTQSPSSLSASVGDRVTITCKASQDVDTAVAWYQQKPGKAPKLLIYWASTRHTGVPSRFSGSGSGTDFTLTVSSLQPEDFATYFCQQYSSYPLTFGGGTKVEIK
notes: also called 10550 (misprint in some paragraphs)
B6: humanized anti-EGFR antibody 11302 (antibody, V domains shown)
VH: B5 VH with G56L
VL: B5 VL

Experiments:
[1] = molecular target: T3, mouse HER3 antigen (mouse, UniProt Q61526 20-641, limits assumed); test: ELISA, coated mu HER3
T3 construct: In-house antigen coated for ELISA; also called mouse antigen; murine HER3
Method: (§1) Antibody-antigen binding was measured by ELISA with coated antigens. Human antigens were obtained from Sino Biologicals. All other antigens were produced in-house by transient expression in CHO or HEK293 cells. Chimeric and humanized antibodies, as well as an isotype control antibody, were incubated with the coated antigens at different concentrations. After wash, bound antibodies were detected by HRP-(horse radish peroxidase)-conjugated secondary antibodies.

[2] = molecular target: T4, cynomolgus EGFR antigen (cynomolgus monkey, UniProt A0A2K5WK39 25-645); test: ELISA, coated cy EGFR
T4 construct: In-house antigen; also called cynomolgus antigen
Method: as §1

[3] = molecular target: T1, murine HER4 antigen; test: ELISA, coated mu HER4
Method: as §1

[4] = molecular target: T5, cynomolgus HER3 antigen (cynomolgus monkey, UniProt G7PIG5 20-643); test: ELISA, coated cy HER3
T5 construct: In-house antigen; also called cynomolgus antigen
Method: as §1

[5] = molecular target: T6, mouse EGFR antigen (mouse, UniProt Q01279 25-647, limits assumed); test: ELISA, coated mu EGFR
T6 construct: In-house antigen coated for ELISA; also called mouse antigen; murine EGFR
Method: as §1

[6] = molecular target: cynomolgus HER2 antigen (cynomolgus monkey); test: SPR (ProteOn XPR36), IgG captured by anti-human Fc, soluble monovalent antigen, 1:1 fit
[7] = molecular target: T2, human HER4 antigen; test: ELISA, coated hu HER4
Method: as §1

[8] = molecular target: T7, mouse HER2 antigen (mouse, UniProt P70424 23-653, limits assumed); test: ELISA, coated mu HER2
T7 construct: In-house antigen coated for ELISA; also called mouse antigen; murine HER2
Method: as §1

[9] = molecular target: T8, human HER2 antigen (Sino Biologicals) (human, UniProt P04626 23-652); test: SPR (ProteOn XPR36), IgG captured by anti-human Fc, soluble monovalent antigen, 1:1 fit
T8 construct: Bought soluble antigen; also called human antigen
Method: (§2) Kinetic binding analysis of the purified humanized variants was performed on a ProteOn™ XPR36 biosensor (BioRad, USA) employing an IgG capture assay as described by Canziani et al. (Anal. Biochem. (2004) 325:301-307) that allows for measurement of antibody affinities of whole IgG molecules against soluble antigen under monovalent conditions. Briefly, approximately 5000 resonance units (RU) of a monoclonal mouse anti-human IgG Fc antibody (GE Healthcare, Denmark) was conjugated to a GLC chip surface (BioRad, USA) according to the manufacturer's instructions, followed by capture of individual antibodies of the invention or a negative control on the anti-Fc sensor surface. […] Next, 250 μl monovalent antigen (Sino Biologicals) was injected at a flow rate of 50 μl/min in serial threefold dilutions from 100 nM stock to generate response curves. The chip surface was regenerated between cycles by stripping the captured antibody/antigen complexes off the surface with a 10-second injection of 3 M MgCl₂ (GE Healthcare, Denmark) repeated three times. Finally, binding responses were fitted to a Langmuir 1:1 binding model for calculation of the on-rate (kon or ka), off-rate (koff or kd) and affinity (KD) constants using double referencing.

[10] = molecular target: T9, human EGFR antigen (Sino Biologicals) (human, UniProt P00533 25-645); test: ELISA, coated hu EGFR
T9 construct: Bought soluble antigen; also called human antigen
Method: as §1

[11] = molecular target: T10, human HER3 antigen (Sino Biologicals) (human, UniProt P21860 20-643); test: ELISA, coated hu HER3
T10 construct: Bought soluble antigen; also called human antigen
Method: as §1

[12] = molecular target: T8, human HER2 antigen (Sino Biologicals); test: ELISA, coated hu HER2
Method: as §1

[13] = molecular target: T4, cynomolgus EGFR antigen; test: SPR (ProteOn XPR36), IgG captured by anti-human Fc, soluble monovalent antigen, 1:1 fit
Method: as §2

[14] = molecular target: T9, human EGFR antigen (Sino Biologicals); test: as above
Method: as §2

T3 sequence (Q61526 20-641 limits assumed): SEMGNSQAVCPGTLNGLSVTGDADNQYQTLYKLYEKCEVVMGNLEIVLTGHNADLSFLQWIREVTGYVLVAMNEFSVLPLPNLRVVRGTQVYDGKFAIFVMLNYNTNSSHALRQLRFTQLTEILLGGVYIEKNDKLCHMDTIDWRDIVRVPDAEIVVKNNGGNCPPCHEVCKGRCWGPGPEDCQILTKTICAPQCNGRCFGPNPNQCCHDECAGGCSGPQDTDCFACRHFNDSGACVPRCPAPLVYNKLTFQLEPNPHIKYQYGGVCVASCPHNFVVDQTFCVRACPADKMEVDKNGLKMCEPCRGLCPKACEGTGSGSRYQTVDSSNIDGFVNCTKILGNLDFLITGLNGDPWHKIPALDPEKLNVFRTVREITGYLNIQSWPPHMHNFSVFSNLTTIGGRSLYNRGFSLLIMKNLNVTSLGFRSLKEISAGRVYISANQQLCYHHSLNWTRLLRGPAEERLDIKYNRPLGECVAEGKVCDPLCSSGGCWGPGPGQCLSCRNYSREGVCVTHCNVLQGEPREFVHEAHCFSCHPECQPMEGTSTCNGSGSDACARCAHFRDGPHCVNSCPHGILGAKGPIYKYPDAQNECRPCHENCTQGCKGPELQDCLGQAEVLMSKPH
T5 sequence (G7PIG5 entry or part of it): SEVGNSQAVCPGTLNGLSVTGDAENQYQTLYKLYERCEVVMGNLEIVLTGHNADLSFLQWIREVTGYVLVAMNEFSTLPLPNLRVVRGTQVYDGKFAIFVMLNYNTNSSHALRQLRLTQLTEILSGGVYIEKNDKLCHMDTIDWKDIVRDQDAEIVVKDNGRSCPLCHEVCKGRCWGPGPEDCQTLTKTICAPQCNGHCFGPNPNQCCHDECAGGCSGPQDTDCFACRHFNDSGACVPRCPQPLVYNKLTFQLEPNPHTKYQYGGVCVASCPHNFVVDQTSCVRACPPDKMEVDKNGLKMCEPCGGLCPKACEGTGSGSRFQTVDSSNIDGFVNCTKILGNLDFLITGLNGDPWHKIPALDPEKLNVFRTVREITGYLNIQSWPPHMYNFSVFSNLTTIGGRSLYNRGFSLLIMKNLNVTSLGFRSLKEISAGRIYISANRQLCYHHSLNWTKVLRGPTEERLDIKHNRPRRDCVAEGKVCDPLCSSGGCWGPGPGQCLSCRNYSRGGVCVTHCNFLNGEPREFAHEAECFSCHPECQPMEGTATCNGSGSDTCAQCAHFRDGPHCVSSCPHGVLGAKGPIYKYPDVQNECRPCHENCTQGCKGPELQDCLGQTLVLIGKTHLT
T7 sequence (P70424 23-653 limits assumed): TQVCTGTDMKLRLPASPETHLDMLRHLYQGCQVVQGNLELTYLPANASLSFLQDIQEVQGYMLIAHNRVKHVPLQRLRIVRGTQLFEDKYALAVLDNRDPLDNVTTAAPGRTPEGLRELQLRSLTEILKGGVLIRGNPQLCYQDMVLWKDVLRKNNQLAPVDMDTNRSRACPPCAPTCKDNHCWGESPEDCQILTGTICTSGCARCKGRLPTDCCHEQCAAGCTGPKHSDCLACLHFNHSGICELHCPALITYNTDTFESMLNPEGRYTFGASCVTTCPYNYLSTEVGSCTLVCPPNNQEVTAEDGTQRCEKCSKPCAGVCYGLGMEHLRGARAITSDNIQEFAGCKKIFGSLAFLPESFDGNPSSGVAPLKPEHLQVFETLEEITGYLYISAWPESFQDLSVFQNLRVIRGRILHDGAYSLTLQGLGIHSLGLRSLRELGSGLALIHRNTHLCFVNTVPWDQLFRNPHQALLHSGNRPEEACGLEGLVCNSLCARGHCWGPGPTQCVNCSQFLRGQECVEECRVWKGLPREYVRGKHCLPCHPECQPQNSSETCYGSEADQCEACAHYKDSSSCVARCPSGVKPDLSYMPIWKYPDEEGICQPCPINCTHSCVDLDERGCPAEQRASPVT

| binding result [1] | binding result [3] | binding result [4] | binding result [5] | binding result [7] | binding result [8] | binding result [11] | binding result [12] | Kd [13] | further results | Binder |
| --- | --- | --- | --- | --- | --- | --- | --- | --- | --- | --- |
| no binding (tested: 40 nM) | no binding (tested: 40 nM) | no binding (tested: 40 nM) | no binding (tested: 40 nM) | no binding (tested: 40 nM) | no binding (tested: 40 nM) | no binding (tested: 40 nM) | – | – | binding result [2]: no binding (tested: 40 nM); Kd [6]: 3.7 nM; koff [6]: 0.00086 s⁻¹; kon [6]: 230000 M⁻¹ s⁻¹; Kd [9]: 1.1 nM; koff [9]: 0.00029 s⁻¹; kon [9]: 260000 M⁻¹ s⁻¹; binding result [10]: no binding (tested: 40 nM) | B1 |
| no binding (tested: 40 nM) | no binding (tested: 40 nM) | no binding (tested: 40 nM) | no binding (tested: 40 nM) | no binding (tested: 40 nM) | no binding (tested: 40 nM) | no binding (tested: 40 nM) | no binding (tested: 40 nM) | 0.35 nM | – | B2 |
| no binding (tested: 40 nM) | no binding (tested: 40 nM) | no binding (tested: 40 nM) | no binding (tested: 40 nM) | no binding (tested: 40 nM) | no binding (tested: 40 nM) | no binding (tested: 40 nM) | no binding (tested: 40 nM) | 0.56 nM | – | B3 |
| no binding (tested: 40 nM) | no binding (tested: 40 nM) | no binding (tested: 40 nM) | no binding (tested: 40 nM) | no binding (tested: 40 nM) | no binding (tested: 40 nM) | no binding (tested: 40 nM) | no binding (tested: 40 nM) | 28 nM | koff [13]: 0.016 s⁻¹; kon [13]: 580000 M⁻¹ s⁻¹; Kd [14]: 0.35 nM; koff [14]: 0.00058 s⁻¹; kon [14]: 1.7e+06 M⁻¹ s⁻¹ | B4 |
| no binding (tested: 40 nM) | no binding (tested: 40 nM) | no binding (tested: 40 nM) | no binding (tested: 40 nM) | no binding (tested: 40 nM) | no binding (tested: 40 nM) | no binding (tested: 40 nM) | no binding (tested: 40 nM) | 3.1 nM | – | B5 |
| no binding (tested: 40 nM) | no binding (tested: 40 nM) | no binding (tested: 40 nM) | no binding (tested: 40 nM) | no binding (tested: 40 nM) | no binding (tested: 40 nM) | no binding (tested: 40 nM) | no binding (tested: 40 nM) | 1.2 nM | – | B6 |
